Assay results: patent US20070243589A1 (Pfizer, published 2007)
Numbering of substitutions follows the chain as printed.

T1: IL-26 (human, UniProt Q9NPH9)
T1 construct: coated on the ELISA plate at 1 µg/ml; also called human IL-26
T1 sequence (cytokine, looked up): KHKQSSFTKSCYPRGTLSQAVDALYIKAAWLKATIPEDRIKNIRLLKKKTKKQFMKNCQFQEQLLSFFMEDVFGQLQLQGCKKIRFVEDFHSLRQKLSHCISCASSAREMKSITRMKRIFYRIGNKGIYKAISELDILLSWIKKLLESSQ

T2: murine IL-22 (murine, UniProt Q9JJY9 34-179)
T2 construct: also called mouse IL-22
T2 sequence: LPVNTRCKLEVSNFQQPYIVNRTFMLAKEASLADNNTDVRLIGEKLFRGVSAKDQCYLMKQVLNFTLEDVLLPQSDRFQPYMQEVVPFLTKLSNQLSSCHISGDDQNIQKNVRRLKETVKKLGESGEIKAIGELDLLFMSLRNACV

T3: human IL-22 (human, UniProt Q9GZX6 34-179)
T3 sequence: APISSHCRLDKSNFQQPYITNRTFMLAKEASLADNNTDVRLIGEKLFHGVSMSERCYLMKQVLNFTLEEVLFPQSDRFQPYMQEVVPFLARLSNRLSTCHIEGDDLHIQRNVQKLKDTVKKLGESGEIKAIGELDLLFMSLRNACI

T4: biotinylated IL-22 with an N-terminal His/FLAG tag (bio.IL-22H/F) (human, UniProt Q9GZX6 34-179, biotinylated (site not stated))
T4 construct: not shown: N-terminal His/FLAG tag
T4 sequence: T3 sequence

B1: 097D09 IgG (non-germlined) (antibody, V domains shown)
VH: EVQLVESGGGLVTPGGSLRLSCAASGFTFSDYYMSWVRQAPGRGLEWVSAISGSGGSTYYADSVKGRITISRDNAKNSLYLQMSSLRSEDTAVYYCARGLWVWDPLDYWGRGTLVTVSS
VL: DIQMTQSPSTLSASIGDRVTITCRASEGIYHWLAWYQQKPGKAPKLLIYKASSLASGAPSRFSGSGFGTDFTLTISSLQPDDFATYYCQQYSEFAWTFGGGTKLEIKR
notes: IgG
B2: 355B06 germlined IgG (antibody, V domains shown)
VH: QVQLVQSGAEVKKPGASVKVSCKASGYTFTDYYMHWVRQAPGQGLEWVGWINPYTGSAFYAQKFRGRVTMTRDTSISTAYMELSRLRSDDTAVYYCAREPEKFGESSGQLWGRGTLVTVSS
VL: QAVLTQPPSVSGAPGQRVTISCTGSSSNIGAGYGVHWYQQLPGTAPKLLIYGDSNRPSGVPDRFSGSKSGTSASLAITGLQAEDEADYYCQSYDSGLSGYVFGGGTQLTVLG
B3: 355E04 germlined IgG (antibody, V domains shown)
VH: B2 VH with D31H, S57G, R65Q, G104D, E105S, S106P, S107N, G108A, Q109E, L110I
VL: B2 VL with D53N, G96S
B4: GIL68 scFv (non-germlined parent) (scFv)
scFv: EVQLVQSGAEVKKPGASVKVSCQASGYTFSDYYIHWVRQTPGQGFEWMGWVNPDTGGTRYAQKFQGWVTMTRDMSNTTAYMELPRLRDDDTAVYYCARDLTGFDPFDIWGQGTLVTVSSGGGGSGGGGSGGGGSAQSVLTQPPSVSVAPGKTATITCGGNNFRNKRVHWYQQRPGQAPVLVIYYDSDRPSGIPERFSGSRSGNTATLTISRVEAGDEADFYCQVWDSSTDRPLFGGGTKLTVLGAAA
B5: 166B06 scFv (non-germlined) (scFv)
scFv: EVQLVQSGAEVKKPGASVKVSCQASGYTFSDYYIHWVRQTPGQGFEWMGWVNPDTGGTRYAQKFQGWVTMTRDMSNTTAYMELPRLRDDDTAVYYCARDLTGFDPFDIWGQGTLVTVSSGGGSSGGGGSGGGGSAQSVLTQPPSVSVAPGKTATITCGGNNFRNKRVHWYQQRPGQAPVLVIYYDSDRPSGIPERFSGSRSGNTATLTISRVEAGDEADFYCQVWDLFNDNGVFGGGTKLTVLGAAAH
notes: Optimized clone derived from GIL68
B6: 368D04 IgG (non-germlined) (antibody, V domains shown)
VH: EVQLVESGGGVVRPGGSLRLSCAASGFTFDDYGMNWVRQAPGKGLEWVSGVNWNGGTRDYAASVKGRFTISRDNAKNSLYLQMNSLRAEDTALYYCARGWYSGAAWNMGYWGRGTLVTVSS
VL: QAVLTQPSSVSGSPGQSITISCTGASGDVGAYNFVSWYQQHPGKTPKLIIYDVNKRPSGVSNRFSGSKSGNTASLTISGLQAEDESDYYCASLVSDFSVVFGGGTKVTVLG

What was measured:
IL-26 = target: T1, IL-26; assay: ELISA: plate coated with 1 µg/ml human IL-26, IgG at 1 µg/ml, HRP anti-human IgG, A450
Description: (§1) Cross species reactivity of germlined and non-germlined optimized antibodies were determined as follows: ELISA plates (Costar, Cat. #3590) were coated overnight with 1 μg/ml of rat, mouse, or human IL-22 or human IL-26 in PBS buffer. Plates were washed with PBST buffer (0.05% Tween20 in PBS) 3 times, then blocked with 1% BSA (Sigma A8918)/PBST for 1 hr at RT. Antibodies were added at 1 μg/ml, incubated 1 hr at 25° C. […] The plates were incubated for 1 hour at 25° C., then washed with PBST, and developed with TMB (KPL, Cat. #50-76-04). Reaction was stopped with 0.18 M H₂S0₄. Plates were read at OD 450 nm.

BSA = target: T5, BSA (bovine, UniProt P02769); assay: ELISA: wells labelled BSA, IgG at 1 µg/ml, HRP anti-human IgG, A450
T5 construct: background wells labelled BSA; also called bovine serum albumin
Description: as §1

murine IL-22 = target: T2, murine IL-22; assay: ELISA: plate coated with 1 µg/ml antigen, IgG at 1 µg/ml, HRP anti-human IgG, A450
Description: as §1

human IL-22 [1] = target: T3, human IL-22; assay: cell-based or functional assay
human IL-22 [2] = target: T3, human IL-22; assay: cell-based or functional assay; remark: listed apart in the source
[3] = target: T4, biotinylated IL-22 with an N-terminal …; assay: DELFIA competition assay: scFv titrated against bio.IL-22H/F binding to the captured IL-22 receptor complex
Description: (§2) Microtiter plates were coated with an IL-22 receptor complex antibody (1 μg/ml in PBS), and incubated for 1.5 hours at room temperature. Plates were washed three times in PBST, and blocked for 1 hour at room temperature with 2% MPBS. After a further 3 washes, diluted cell conditioned medium containing an IL-22 receptor complex was added and incubated overnight at 4° C. Crude scFv supernatants were prepared as described above. The following day, 25 μl of diluted scFv sample and 25 μl of bio.IL-22H/F (6 ng/ml) were added to the washed plates, and incubated for 1.5 hours at room temperature. Plates were washed 3 times in PBST, then binding of bio.IL-22H/F to the IL-22 receptor complex was detected with Europium-Streptavidin and the DELFIA® reagent kit (PerkinElmer). Time Resolved Fluorescence was measured using a Victor 2™ Plate Reader (Perkin Elmer).
(§3) Purified scFv from positive clones identified from the screening were tested in the DELFIA® IL-22 receptor complex competition assay as described above. A titration of scFv concentrations was used in order to establish the clone potency as measured by IC₅₀ values in the assay. Fourteen optimized clones were designated 097D09, 062A09, 062G05, 087B03, 367D04, 368D04, 166B06, 166G05, 375G06, 376B10, 354A08, 355B06, 355E04, and 356A11.

[4] = target: T4, biotinylated IL-22 with an N-terminal …; assay: biotinylated IL-22 binding IL-22 receptor complex competition assay, purified scFv, parent
Description: as §2
Sequence data for the six parent clones was used to identify the nearest germline sequence for the heavy and light chain of each clone. Appropriate mutations were made using standard site directed mutagenesis techniques with the appropriate mutagenic primers. Mutation of sequences was confirmed by sequence analysis. Purified scFv from the germlined parent clones were tested in the biotinylated IL-22 binding IL-22 receptor complex competition assay as described earlier, in order to establish the clone potency as measured by IC₅₀ values in the assay.

[5] = target: T4, biotinylated IL-22 with an N-terminal …; assay: DELFIA competition assay: scFv titrated against bio.IL-22H/F binding to the captured IL-22 receptor complex; remark: listed apart in the source
Description: as §2, §3

[6] = target: T4, biotinylated IL-22 with an N-terminal …; assay: IL-22 receptor complex inhibition assay (bio.IL-22H/F binding to IL-22 receptor complex, DELFIA), scFv
Description: (§4) Both the IL-22/IL-22R binding assay (described above) and the IL-22/IL-22 receptor complex assay (described below) were used. ScFv concentrations were titrated in order to establish the clone potencies as measured by assay IC₅₀ values. These were determined using GraphPad Prism software and four-parameter logistic equation curve fitting.
as §2

[7] = target: T4, biotinylated IL-22 with an N-terminal …; assay: DELFIA competition assay: scFv titrated against bio.IL-22H/F binding to the captured IL-22 receptor complex; remark: listed apart in the source
Description: as §4, §2

T5 sequence (P02769 25-607 limits assumed): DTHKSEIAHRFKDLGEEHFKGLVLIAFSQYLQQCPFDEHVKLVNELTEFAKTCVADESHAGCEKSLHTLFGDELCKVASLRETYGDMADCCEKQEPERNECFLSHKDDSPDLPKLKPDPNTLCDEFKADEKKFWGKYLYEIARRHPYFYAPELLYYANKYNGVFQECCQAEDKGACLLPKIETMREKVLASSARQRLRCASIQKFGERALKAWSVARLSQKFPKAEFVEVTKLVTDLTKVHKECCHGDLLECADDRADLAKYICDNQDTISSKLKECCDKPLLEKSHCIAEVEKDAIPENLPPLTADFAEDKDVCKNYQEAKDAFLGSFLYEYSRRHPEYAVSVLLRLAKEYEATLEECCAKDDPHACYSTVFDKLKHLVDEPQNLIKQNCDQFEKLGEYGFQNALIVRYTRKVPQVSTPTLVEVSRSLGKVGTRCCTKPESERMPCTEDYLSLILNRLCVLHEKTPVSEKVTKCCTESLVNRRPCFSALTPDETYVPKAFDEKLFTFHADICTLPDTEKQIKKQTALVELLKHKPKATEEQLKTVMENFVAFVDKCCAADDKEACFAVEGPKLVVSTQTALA

Binder	binding result (IL-26)	binding result (BSA)	binding result (murine IL-22)	IC50 of IgG in BaF3-IL-22 proliferation assay (human IL-22 [1]) [pM]	IC50 (pM) of germlined IgG in BaF3-IL-22R proliferation assay (human IL-22 [2]) [pM]	IC50 [3] [pM]	IC50 [4] [pM]	IC50 [5] [pM]	IC50 [6] [pM]	IC50 [7] [pM]	IC50 of scFv in BaF3-IL-22 proliferation assay (human IL-22 [1]) [pM]
B1	no binding (tested: 1 µg/ml (single concentration))	no binding (tested: 1 µg/ml (single concentration))	no binding (tested: 1 µg/ml (single concentration))	197							
B2	no binding (tested: 1 µg/ml (single concentration))	no binding (tested: 1 µg/ml (single concentration))	binds	92	92						
B3	no binding (tested: 1 µg/ml (single concentration))	no binding (tested: 1 µg/ml (single concentration))	binds	100	100						
B4						7450	9000	10600	7000	10000	
B5								620			460
B6	no binding (tested: 1 µg/ml (single concentration))	no binding (tested: 1 µg/ml (single concentration))	binds	127							
